Where a chain is given by its changes, count along the chain named. Names may count otherwise.
B1: F420M: amino acid substituted PPO enzyme F420M (protein, listed as Amaranthus tuberculatum)
chain: MVIQSITHLSPNLALPSPLSVSTKNYPVAVMGNISEREEPTSAKRVAVVGAGVSGLAAAYKLKSHGLSVTLFEADSRAGGKLKTVKKDGFIWDEGANTMTESEAEVSSLIDDLGLREKQQLPISQNKRYIARDGLPVLLPSNPAALLTSNILSAKSKLQIMLEPFLWRKHNATELSDEHVQESVGEFFERHFGKEFVDYVIDPFVAGTCGGDPQSLSMHHTFPEVWNIEKRFGSVFAGLIQSTLLSKKEKGGENASIKKPRVRGSFSFQGGMQTLVDTMCKQLGEDELKLQCEVLSLSYNQKGIPSLGNWSVSSMSNNTSEDQSYDAVVVTAPIRNVKEMKIMKFGNPFSLDFIPEVTYVPLSVMITAFKKDKVKRPLEGFGVLIPSKEQHNGLKTLGTLFSSMMFPDRAPSDMCLFTTMVGGSRNRKLANASTDELKQIVSSDLQQLLGTEDEPSFVNHLFWSNAFPLYGHNYDSVLRAIDKMEKDLPGFFYAGNHKGGLSVGKAMASGCKAAELVISYLDSHIYVKMDEKTA
B2: R128A: amino acid substituted PPO enzyme R128A (protein, listed as Amaranthus tuberculatum)
chain: B1 chain with R128A, M420F
B3: F420L: amino acid substituted PPO enzyme F420L (protein, listed as Amaranthus tuberculatum)
chain: B1 chain with M420L

Legend:
[1] = target: wild type PPO enzyme (Amaranthus tuberculatus, UniProt Q0NZW9); experiment: PPO enzyme assay (recombinant), wild type; assay type: biochemical; conditions: 150 μM Protogen
[2] = system: Chlamydomonas reinhardtii; experiment: Selection of mutagenized algae cells on solid medium with herbicide; conditions: solid medium containing 1×10^−7 M
Experimental: Algae cells of Chlamydomonas reinhardtii strains CC-503 and CC-1691 (Duke University, Durham, USA) are propagated in TAP medium (Gorman and Levine (1965) PNAS 54:1665-1669) by constant shaking at 100 rpm, 22° C. and 30 μmol Phot*m^−2*s^−2 light illumination. […] Compound screening is performed at 450 μmol Phot*m^−2*s^−2 illumination.
Sensitive strains of Chlamydomonas reinhardtii or Scenedesmus obliquus are mutated with 0.14 M ethylmethanesulfonate (EMS) for 1 h as described by Loppes (1969, 20 Mol Gen Genet 104:172-177) Tolerant strains are identified by screening of mutagenized cells on solid nutrient solution plates containing benzoxazinone-derivative herbicide of interest at low to lethal concentrations depending on compound activity in specific algae strain.
(A) Mutagenized cells plated on solid medium without a selecting agent. (B) Mutagenized cells plated on solid medium containing 1×10^−7 M benzoxazinone-derivative I.a.35.

[3] = Enzyme activity of recombinant wild type and substituted PPO enzymes; conditions: fluorescence unit change per minute

Row | Molecule | IC50 [1] [nM] | growth of mutagenized Chlamydomonas reinhardtii cells (colony formation) [2] | Activity (FU/min) [3] [FU/min]
1 | C#CCN1C(=O)C(F)(F)Oc2cc(F)c(-n3c(=O)n(C)c(=S)n(C)c3=O)cc21 [benzoxazinone 1.a.35] | 0.12 | susceptible cells do not grow | 
2 | B1 |  |  | 353
3 | B2 |  |  | 731
4 | B3 |  |  | 203

From US12570994B2, “Plants having increased tolerance to herbicides” (BASF AGRO B.V., priority 2010, dated 2026)
